Assay: soluble on expression in E. coli; label from the status in PepcDB or PDB records

Row | Sequence | soluble on expression in E. coli
1 | AAEVGDDFLGDFVVGERVWVNGVKPGVVQYLGETQFAPGQWAGVVLDDPVGKNDGAVGGVRYFECPALQGIFTRPSKLTRQP | soluble
2 | AAIYHLDVSGQATIRFRPPAFLKTLVSEHAGTTRLNTLSMIHHDDRHMLSNAYSKLREAKHSLTLVYRIVTPEGKLHWIEDHMRSSFSDD | not soluble
3 | AARPRKNNVSVPNLYPLYSRKVNKVYWRYKHPVTGKFHALGTNEAEAIAIATEANTRLAEQRTRQILAISDRIATSKGKAITTSTWLDRYQAIQDDRLKSGDIRLNTYKQKAKPVSLLRERAGMKLISAVDVRDIAQLLDEYIAAGRPRMAQVVRSVLIDVFKEAQHYGEVPPGYNPALATKQPRRKITRQRLSLEEWKKIFDIADATHRYMGNAMLLALVTGQRLGDISRMKFSDIWDDHLHVIQEKTGSKIAIPLSLRLNAINWSLRDVVARCRDYAVSAYLVHFFRSTSQAERGAQVKANTLTMNFSKARDLARIDWGEGSPATFHEQRSLSERLYKEQGLDTQKLLGHKTQQQTDRYHDDRGKGWSKVAL | not soluble
4 | ADFEVHMLNKGKDGAFVFEPASLKVAPGDTVTFIPTDKGHNVETIKGMIPDGAEAFKSKINENYKVTFTAPGVYGVKCTPHYGMGMVGVVQVGDAPANLEAVKGAKNPKKAQERLDAALAALGN | soluble
5 | ADPAECSIKVMCRFRPLNEAEILRGDKFIPKFKGEETVVIGQGKPYVFDRVLPPNTTQEQVYNACAKQIVKDVLEGYNGTIFAYGQTSSGKTHTMEGKLHDPQLMGIIPRIAHDIFDHIYSMDENLEFHIKVSYFEIYLDKIRDLLDVSKTNLAVHEDKNRVPYVKGCTERFVSSPEEVMDVIDEGKANRHVAVTNMNEHSSRSHSIFLINIKQENVETEKKLSGKLYLVDLAGSEKV | soluble
6 | ADVTITVNGKVVAKPCTVSTTNATVDLGDLYSFSLMSAGAASAWHDVALELTNCPVGTSRVTASFSGAADSTGYYKNQGTAQNIQLELQDDSGNTLNTGATKTVQVDDSSQSAHFPLQVRALTVNGGATQGTIQAVISITYTYS | soluble
7 | AEDAKLRINGATVTSATNKVTNYIPGVTINLKKETTGAEKLTIQDQSDEKAASMITSFVNTYNALTSTMKTYTGKGTILQASAADLEANRALNNVFQHKKDGNTLFDFGISVDKEGVLKVDETAMKKMVAEDPTAVERFFFGIGGIGDELYQSLNKTFGSTGFISDETTSMTNEINKLNLKLTDITSRNDTLLTNITDQYNKWLEMMQAMQSDAMTLDALIDGMNSSNK | not soluble
8 | AEEYGYIVTDQKPLSLAAGVKLLEILAEHVHMSSGSFINISVVGPALTFRIRHNEQNLSLADVTQQAGLVKSELEAQTGLQILQTGVGQRE | soluble
9 | AEPQPPSGGLTDEAALSCCSDADPSTKDFLLQETMLRVKDPKKSLDFYTRVLGMTLIQKCDFPIMKFSLYFLAYEDKNDIPKEKDEKIAWALSRKATLELTHNWGTEDDETQSYHNGNSDPRGFGHIGIAVPDVYSACKRFEELGVKFVKKPDDGKMKGLAFIQDPDGYWIQILNPNKMATLM | soluble
10 | AERGELDLTGAKQNTGVWLVKVPKYLSQQWAKASGRGEVGKLRIAKTQGRTEVSFTLNEDLANIHDIGGKPASVSAPREHPFVLQSVGGQTLTVFTESSSDKLSLEGIVVQRAECRPA | soluble
11 | AGADGTSEELADNFVFGFHATVEALQQGRGNKLFLQEDARGEKIEQLKQAAKEQAVPVKWVPKAKLDTMSDHGVHQGMVLAITA | not soluble
12 | AGFKPAPPAGQLGAVIVDPYGNAPLTALVDLDSHVISDVKVTVHGKGEKGVEISYPVGQESLKTYDGVPIFGLYQKFANKVTVEWKENGKVMKDDYVVHTSAIVNNYMDNRSISDLQQTKVIKVAPGFEDRLYLVNTHTFTAQGSDLHWHGEKDKNAGILDAGPATGALPFDIAPFTFIVDTEGEYRWWLDQDTFYDGRDRDINKRGYLMGIRETPRGTFTAVQGQHWYEFDMMGQVLEDHKLPRGFADATHESIETPNGTVLLRVGKSNYRRDDGVHVTTIRDHILEVDKSGRVVDVWDLTKILDPKRDALLGALDAGAVCVNVDLAHAGQQAKLEPDTPFGDALGVGPGRNWAHVNSIAYDAKDDSIILSSRHQGVVKIGRDKQVKWILAPSKGWEKPLASKLLKPVDANGKPITCNENGLCENSDFDFTYTQHTAWISSKGTLTIFDNGDGRHLEQPALPTMKYSRFVEYKIDEKKGTVQQVWEYGKERGYDFYSPITSIIEYQADRNTMFGFGGSIHLFDVGQPTVGKLNEIDYKTKEVKVEIDVLSDKPNQTHYRALLVRPQQMFK | soluble
13 | AGKTLYDKLWDMHLVKQRDDGSALIYIDRHILHEVTSPQAFEGLRLAGRKPWRIDANIATPDHNVPTTRTERKGGIAAIADEVSRLQVQTLDENCDDFGITEFKMNDVRQGIVHVVGPEQGATLPGMTVVCGDSHTSTHGAFGALAHGIGTSEVEHVLATQCLVAKKMKN | not soluble
14 | AGKTLYDKLWEAHEVKRRDDGSSLIYIDRHIIHEVTSPQAFEGLRLANRKPWRIDANIATPDHNVPTTPERKGGIEAIVDQVSRLQVQTLDENCDEYGIVEFKMNDERQGIVHVISPEQGATLPGMTVVCGDSHTSTHGAFGALAHGIGTSEVEHVLATQCLVAKKMKN | not soluble
15 | AGNATEVPANSTVLSFCAFAVDPAKAYKDYLASGGQPITNCVKMLCTHTGTGQAITVTPEANMDQESFGGASCCLYCRCHIDHPNPKGFCDLKGKYVQIPTTCANDPVGFTLRNTVCTVCGMWKGYGCSCDQLREPLMQSADASTFLNGFAV | soluble
16 | AGNTSYFLRRKIFRKIMHITAPSHDQYGSSTLLVRLTNDVYLMEIMTFDFL | not soluble
17 | AHHHHHHGSEYKPIRKVVSGNYAAAYAALHARVQVVAAYPITPQTSIIEKIAEFIANGEADIQYIPVESEHSAMAACIGASATGARTFTATSAQGLALMHEMLHWAAGARLPIVMVDVNRAMAPPWSVWDDQTDSLSQRDTGWMQFYAENNQEVYDGVLMAYKVAETVNVPAMVVESAFILSHTYDVVEMIPQELVDEFLPPRKPLYSLANFDEPIAVGALATPNDYYEFRYKLAKAHEEAKKVIKEVGKEFGERFGRDYSQMIETGYIDDADFVFMGMGSLMGTVKEAVDLLRKEGYKVGYAKVRWFRPFPKEELVEIAESVKGIAVLDRNFSFGQEGILFTESKGALYNSSAHPLMKNYIVGLGGRDVTVKDIKAIADDMKKVIESGKVDKEVVWYHLKR | soluble
18 | AHHHHHHGSGDNRKVRVVVGGVFDILHVGHVHFLKMAKELGDELIVIVAHDETVKRRKGRPPINPAEDRAELLKSIRYVDDVVIGEPGEISIDLIKRLKPDVIALGPDQDFSCEELKKRLRKEGINAEVIRLPYLYKSDRAKTSKIIQRIIETFCE | not soluble
19 | AHHHHHHGSKARGRAWKYGDNIDTDVIIPARYLNTSDPKELAQHVLEDLDPEFRYKMKPGDIIVAGENFGCGSSREHAPLAIKAAGVSAVIAKSFARIFYRNAINIGLPILEAPEAVERIETGDEIEIDFSTGEIRNLTKGEVYHANPFPEFIMEIIKAGGLVEWAKRRLAK | soluble
20 | AHHHHHHGSKEKRKYFMAHRIGVIQRSKIRELFERASKMENVISLGIGEPDFDTPNNIKEAAKRALDEGWTHYTPNAGIPELREAIAEYYKKFYGIDVEVDNVLVTAGAYEATYLAFETMLEQGDEVIIPDPAFVCYVEDAKLAEAKPIRLPLREENDFKPDIDELLERITKRTRMIVINYPNNPTGAVLDKETAKAIADVAEDYNIYILSDEPYEHFLYDDAKHYPMIKFAPDNTILANSFSKTFAMTGWRLGFVIAPTQIIREMIKLHAYIIGNVASFVQVAGIEALRSKESWKAVEEMRKEYNERRKLVLQRLRKMPYIKVREPKGAFYVFPNISETEMSSEEFSEWLLEKAKVVVIPGTAFGENGEGYVRISYATSREKLIEAMDRIEKALEEI | soluble
21 | AHHHHHHGSKFEELNEKIKKVYGKVRTIDDFHWHISDNLIHGIHKKSGLRLEIRIAESKEAADKIAQKKEPGNLMVIVVPGKETFYVNNGAFVLALKFLRSTIQDISDHIVWAGFKVVERDGALEQEDIYEYLGGRLIEHIKSGMVNGKDYIFWQFYKCEHCGKYVDIENLVRHMKTHGEDVKEWSEEKYEVLELSFEDKKVYNKFGKEVPLEEFVEETQDFIKEVFES | soluble
22 | AHHHHHHGSKTLKVYIPGIKFPSISVTGNYCALNCAHCGRHYLEGMKKITRLNLVDKCVEMEKEGYVGCLLSGGMDSRLKVPLDKFKDEIREIKEKTRLKINAHVGFIDEDDLEWLKYIDVVSLDFVGDNEVIKRVYKIDKTVNDYLKILDILTKERIKVAPHITIGLDFGRIHWEYEAIDLLSEYPIDVLVLNILIPTPGTEMENVKVSMEEALNVVRYAREEFKGELSIGCMRPFGRWREEFDKRAILIGVDRITNPPRKVIEWAKQFRKVEIHFECCVI | not soluble
23 | AHHHHHHGSPPIIDPHILRSLHRSELRRRILHYLYEIYPSATYLSEIARVVSSDPSNVRGALVGLGNRYNSESSLVYLGLVEEIVNNGFKYYRLTEYGKKVVEMLKDYQTYYRKFM | not soluble
24 | AHHHHHHGSRERGVAFFSGGKDGLYALYLAEKEGIEVPYLLTLKTSIGLSPHWENLSSLKALAENMGKKLLTFDMKYGSKALAEFISSLDVDYIIAGDVFLEDHLKWINLLAEKAGIKSFEPLWGKNTLELAKEMLNAGFKYSIIAVDKNKLEKTWLGYTFSSTRDIEIFIYENPTIDPLGEGGEFHTITLSSPLFKDEFTLEKISVEESERYWWMRFRVVGNDIKNVRVKGHNSRKDG | not soluble
25 | AHHHHHHGSSSIEWNEKTFAKFAYLSDPRTKGELVAYVLTKANLKDNKYENTIVIENLKNNARRFIENATMPRISPDGKKIAFMRANEEKKVSEIWVADLETLSSKKILEAKNIRSLEWNEDSRKLLIVGFKRREDEDFIFEDDVPAWFDDLGFFDGEKTTFWIFDTESEEVIEEFEKPRFSSGIWHRDKIVVNVPHREIIPQYFKFWDIYIWEDGKEEKMFEKVSFYAVDSDGERILLYGKPEKKYMSEHNKLYIYDGKEVMGILDEVDRGVGQAKIKDGKVYFTLFEEGSVNLYIWDGEIKPIAKGRHWIMGFDVDEIVVYLKETATRLRELFTWDGEEKQLTDYNDPIFAKLKTFEPVHFRYKSLDLEIDGWYMKPELKEGEKAPVIVFVHGGPKGMYGYYFKYEMQLMAAKGYYIVYVNPRGSNGYSEDFALRVLTRTGLEDFQDILNGIEEFLKLEPQADRERIGITGISYGGYMTNWALTQSDLFKAGISENGISYWLTSYAFSDIGLWFDKEVIGENPLENENFRRLSPLFYAKNVKAPILLIHSLEDYRCPLDQSLMFYHVLKDLGKEAYIAIFKRGAHGHSIRGQPRHRMKRYKLFVEFFERKLKKYEEGFPIEKILKE | not soluble
26 | AHHHHHHGSVRIEVVDIEKPEGVEVIIGQGNFSIFTVDDLARALLTTVPGIKFGIAMNEAKPQLTRYTGNDPELEKLAAKNALKIGAGHVFVILMKNAYPINVLNTIKNHPAVAMVYGASENPFQVIVAETELGRAVIGVVDGKAATKIETEEQKKERRELVEKIGYKID | not soluble
27 | AHHHHHHGSVVKRTMTKKFLEEAFAGESMAHMRYLIFAEKAEQEGFPNIAKLFRAIAYAEFVHAKNHFIALGKLGKTPENLQMGIEGETFEVEEMYPVYNKAAEFQGEKEAVRTTHYALEAEKIHAELYRKAKEKAEKGEDIEIKKVYICPICGYTAVDEAPEYCPVCGAPKEKFVVFE | soluble
28 | AHQTKVDTLIVTNSKAWKPFSYVSQDGEPKGILIDFWREYAERNHVRVEFLLLDWEESLRAVKEGRADVHAGLIYSEARDKYLDFGAVIMPIQTKLYVNKDMLAVDIKGVLTGEVELPIGLVKGSYEAEFVRANYPRASLVEYLNNDAMIRAAVEKNILYFVADLQVAN | not soluble

From the DeepSol protein solubility set
